T1: PF3D7_0800200 (acidic C-terminal segment (ATS) domain, 2,466-2,858 aa)-His (Plasmodium falciparum, UniProt Q8IAK2 2466-2858)
T1 construct: the reverse primer has no stop codon), which would give a C-terminal His tag; also called ATS-His; PfEMP1 ATS; source: E. coli BL21 (DE3), purified
T1 sequence: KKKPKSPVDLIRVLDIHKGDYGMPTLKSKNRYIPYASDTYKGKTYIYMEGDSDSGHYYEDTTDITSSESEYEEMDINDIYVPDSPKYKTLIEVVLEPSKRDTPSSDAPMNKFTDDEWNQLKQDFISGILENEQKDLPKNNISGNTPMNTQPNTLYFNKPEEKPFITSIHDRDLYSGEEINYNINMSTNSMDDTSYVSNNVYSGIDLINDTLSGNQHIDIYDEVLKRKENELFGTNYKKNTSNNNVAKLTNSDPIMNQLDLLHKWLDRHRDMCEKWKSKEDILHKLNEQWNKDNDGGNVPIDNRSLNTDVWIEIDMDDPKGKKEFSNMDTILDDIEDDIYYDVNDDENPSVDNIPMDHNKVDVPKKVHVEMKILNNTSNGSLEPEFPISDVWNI

T2: PF3D7_0800200 (ATS domain, 2,466-2,858 aa)-His (Plasmodium falciparum, UniProt Q8IAK2 2466-2858)
T2 construct: Cloned into pET-28a; also called ATS-His; PfEMP1 ATS; source: E. coli BL21 (DE3), purified
T2 sequence: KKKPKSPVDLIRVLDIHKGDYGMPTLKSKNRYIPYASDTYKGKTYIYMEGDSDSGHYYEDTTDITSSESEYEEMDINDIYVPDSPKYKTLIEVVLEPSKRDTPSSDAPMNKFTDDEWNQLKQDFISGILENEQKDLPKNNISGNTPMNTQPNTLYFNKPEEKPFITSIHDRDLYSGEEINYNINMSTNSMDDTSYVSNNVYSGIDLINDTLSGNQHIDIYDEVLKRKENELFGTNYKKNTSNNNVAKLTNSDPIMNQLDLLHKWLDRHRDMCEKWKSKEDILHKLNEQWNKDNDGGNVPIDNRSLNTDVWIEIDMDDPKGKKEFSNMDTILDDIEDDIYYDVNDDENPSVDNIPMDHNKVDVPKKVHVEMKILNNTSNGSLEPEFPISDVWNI


Legend:
[1] = molecular target: PF3D7_0800200 (ATS domain, 2,466-2,858 aa)-His (Plasmodium falciparum) (UniProt Q8IAK2); assay: BLI; Octet K2; ATS-His loaded onto Ni-NTA biosensors; GST-tagged analyte diluted from 1,000 to 62.5 nM in PBS with 0.02% Tween-20; association and dissociation 5 min each; non-linear global fit
[2] = molecular target: T1, PF3D7_0800200 (acidic C-terminal …); assay: BLI; Octet K2 (ForteBio); ATS-His loaded onto Ni-NTA biosensors; GST-tagged protein in solution diluted from 1,000 to 62.5 nM in PBS with 0.02% Tween-20; association and dissociation 5 min each; non-linear global fit; KD calculated as Kdis/Kon; details: both partners purified
[3] = molecular target: T2, PF3D7_0800200 (ATS domain, 2,466-2,858 …); assay: BLI; Octet K2; ATS-His loaded onto Ni-NTA biosensors; GST-tagged analyte diluted from 1,000 to 62.5 nM in PBS with 0.02% Tween-20; association and dissociation 5 min each; non-linear global fit; details: both partners purified

Chain of GST (P08515 2-218): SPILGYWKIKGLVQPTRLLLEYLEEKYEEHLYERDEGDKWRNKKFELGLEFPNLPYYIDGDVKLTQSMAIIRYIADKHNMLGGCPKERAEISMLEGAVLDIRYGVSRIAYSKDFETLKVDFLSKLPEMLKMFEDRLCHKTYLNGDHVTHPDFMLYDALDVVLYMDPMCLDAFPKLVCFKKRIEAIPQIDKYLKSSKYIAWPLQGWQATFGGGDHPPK

Molecule	Kd [1] [nM]	koff [2] [s⁻¹]	kon [2] [M⁻¹ s⁻¹]	Kd [3] [nM]
GST	< 0.001	–	–	–
PF3D7_1372300 (27-206 aa)-GST (domain or fragment, PF3D7_1372300, a PHIST/PHISTa-like protein of Plasmodium falciparum, residues 27-206 (without the 25-residue signal peptide), amplified from P. falciparum cDNA; the reverse primer carries a stop codon; also called PF3D7_1372300-GST; 1372300-GST; source: E. coli BL21 (DE3), purified) RNEIHKNSLGFGKNDNIYSRNLAQLKLSNYSLLKDSKFESVTEQLTREELYELFDLLVQVPPRTYLLNIWNHKNGICRQGTKDLLKNLRGIAPKLTYRHTGNTNQYGKSPPKITWQGCSYDCNMMVSTLETEQTNRFYNLLNKKAPIDEIKSFIRSCIDEFDKLHTDLYVKYEKIFSEQK	–	0.000756	6330	–
PF3D7_1372300 (27-206 aa)-GST (domain or fragment, PF3D7_1372300, PHIST/PHISTa-like protein of Plasmodium falciparum, residues 27-206 (without the 25 amino acid signal peptide), amplified from P. falciparum cDNA; Cloned into pGEX-4T-1; also called PF3D7_1372300-GST; PHIST/PHISTa-like protein; source: E. coli BL21 (DE3), purified) RNEIHKNSLGFGKNDNIYSRNLAQLKLSNYSLLKDSKFESVTEQLTREELYELFDLLVQVPPRTYLLNIWNHKNGICRQGTKDLLKNLRGIAPKLTYRHTGNTNQYGKSPPKITWQGCSYDCNMMVSTLETEQTNRFYNLLNKKAPIDEIKSFIRSCIDEFDKLHTDLYVKYEKIFSEQK	–	–	–	119
PF3D7_1372300-(130-206)-GST (domain or fragment, PF3D7_1372300, a PHIST/PHISTa-like protein of Plasmodium falciparum, residues 130-206; purified 'according to the methods described above'; also called PF3D7_1372300 (residues 130-206); source: E. coli BL21 (DE3), purified) NQYGKSPPKITWQGCSYDCNMMVSTLETEQTNRFYNLLNKKAPIDEIKSFIRSCIDEFDKLHTDLYVKYEKIFSEQK	–	0.000158	6960	–
PF3D7_1372300-(130-206)-GST (domain or fragment, PF3D7_1372300, PHIST/PHISTa-like protein of Plasmodium falciparum, residues 130-206; source: E. coli BL21 (DE3), purified (according to the methods described for the other recombinant proteins)) NQYGKSPPKITWQGCSYDCNMMVSTLETEQTNRFYNLLNKKAPIDEIKSFIRSCIDEFDKLHTDLYVKYEKIFSEQK	–	–	–	22.6
PF3D7_1372300-(27-129)-GST (domain or fragment, PF3D7_1372300, a PHIST/PHISTa-like protein of Plasmodium falciparum, residues 27-129; purified 'according to the methods described above'; also called PF3D7_1372300 (residues 27-129); source: E. coli BL21 (DE3), purified) RNEIHKNSLGFGKNDNIYSRNLAQLKLSNYSLLKDSKFESVTEQLTREELYELFDLLVQVPPRTYLLNIWNHKNGICRQGTKDLLKNLRGIAPKLTYRHTGNT	–	0.000844	6630	–
PF3D7_1372300-(27-129)-GST (domain or fragment, PF3D7_1372300, PHIST/PHISTa-like protein of Plasmodium falciparum, residues 27-129; source: E. coli BL21 (DE3), purified (according to the methods described for the other recombinant proteins)) RNEIHKNSLGFGKNDNIYSRNLAQLKLSNYSLLKDSKFESVTEQLTREELYELFDLLVQVPPRTYLLNIWNHKNGICRQGTKDLLKNLRGIAPKLTYRHTGNT	–	–	–	127
